This passage reports stoichiometry N results from publication doi:10.1101/447052.

In assay [1] the target is lower collar protein gp18 of phage P68 (S. aureus phage P68). The experiment in a line: cryo-EM structure.
Assay [2] addresses portal protein gp19 of phage P68 (S. aureus phage P68). In words: cryo-EM structure.
For assay [3], the target named is head fiber gp14 of phage P68 (S. aureus phage P68). In words: cryo-EM structure.
Assay [4] has as its target tail fiber gp17 of phage P68 (in the virion) (S. aureus phage P68). In words: cryo-EM structure.
The target in assay [5] is tail fiber protein gp17 of phage P68 (protein used for crystallization) (S. aureus phage P68). The experiment in a line: crystal structure.

Where two headings read alike, the source gives them in different places.

The substance “lower collar protein gp18 of phage P68 (natural protein)” registered a stoichiometry N in assay [1] of 12 subunits.
For the substance “inner core protein gp22 of phage P68 (natural protein)”, in assay [2] (scale: inner core proteins for each portal protein), the stoichiometry N amounted to 6.
For the substance “head fiber gp14 of phage P68 (natural protein)”, the stoichiometry N in assay [3] is 3 subunits.
In turn, “tail fiber gp17 of phage P68 (in the virion) (natural protein)” yielded a stoichiometry N in assay [4] of 3 subunits.
Take “tail fiber protein gp17 of phage P68 (protein used for crystallization) (natural protein)”: the stoichiometry N in assay [5] was 3 subunits.
As for “portal protein gp19 of phage P68 (natural protein)”, the stoichiometry N in assay [2] is 12 subunits.
